Laboratory results as given in patent US20260274985A1 (MYTHIC THERAPEUTICS, published 2026).

T1: Human TROP2 Protein, His Tag (Acro Biosystems) (human, UniProt P09758 27-274)
T1 construct: not shown: His tag
T1 sequence (looked up): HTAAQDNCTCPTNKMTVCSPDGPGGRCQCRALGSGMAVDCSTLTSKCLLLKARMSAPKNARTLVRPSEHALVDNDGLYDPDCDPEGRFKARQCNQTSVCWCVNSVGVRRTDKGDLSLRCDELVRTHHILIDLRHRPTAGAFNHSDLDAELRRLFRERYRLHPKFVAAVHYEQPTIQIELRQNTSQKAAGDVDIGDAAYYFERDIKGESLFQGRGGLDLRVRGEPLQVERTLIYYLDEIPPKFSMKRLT

T2: Human TROP2 Protein, His Tag (Acro Biosystems) (human, UniProt P09758 27-274)
T2 construct: Bought protein; also called TACSTD2; not shown: His tag
T2 sequence: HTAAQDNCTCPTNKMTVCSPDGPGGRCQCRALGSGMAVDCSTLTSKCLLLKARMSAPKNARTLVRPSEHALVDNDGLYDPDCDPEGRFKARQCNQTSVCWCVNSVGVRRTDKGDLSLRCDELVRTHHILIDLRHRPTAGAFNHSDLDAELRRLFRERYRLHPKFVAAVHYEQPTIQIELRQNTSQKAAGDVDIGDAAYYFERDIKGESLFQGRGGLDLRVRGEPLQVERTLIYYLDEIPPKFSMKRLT


Assays:
[1] = target: T1, Human TROP2 Protein, His Tag (Acro …); assay: BLI (Octet) [2/2]
[2] = target: T2, Human TROP2 Protein, His Tag (Acro …); assay: BLI (Octet)
[3] = target: T2, Human TROP2 Protein, His Tag (Acro …); assay: BLI (Octet), antibody on anti-human Fc sensor, human TROP2-His in solution; legend: 3=No binding

| Binder | binding result [1] | binding result [2] | other results |
| --- | --- | --- | --- |
| MYT12351 (antibody, V domains shown, sacituzumab VL 51, 92 -> H) VH: QVQLQQSGSELKKPGASVKVSCKASGYTFTNYGMNWVKQAPGQGLKWMGWINTYTGEPTYTDDFKGRFAFSLDTSVSTAYLQISSLKADDTAVYFCARGGFGSSYWYFDVWGQGSLVTVSS VL: DIQLTQSPSSLSASVGDRVSITCKASQDVSIAVAWYQQKPGKAPKLLIYSHSYRYTGVPDRFSGSGSGTDFTLTISSLQPEDFAVYYCQQHHITPLTFGAGTKVEIK | binds |  |  |
| MYT12364 (antibody, V domains shown, sacituzumab VL 89, 93 -> H) VH: QVQLQQSGSELKKPGASVKVSCKASGYTFTNYGMNWVKQAPGQGLKWMGWINTYTGEPTYTDDFKGRFAFSLDTSVSTAYLQISSLKADDTAVYFCARGGFGSSYWYFDVWGQGSLVTVSS VL: DIQLTQSPSSLSASVGDRVSITCKASQDVSIAVAWYQQKPGKAPKLLIYSASYRYTGVPDRFSGSGSGTDFTLTISSLQPEDFAVYYCHQHYHTPLTFGAGTKVEIK | binds |  |  |
| MYT12376 (antibody, V domains shown, sacituzumab VL 51, 89, 93 -> H) VH: QVQLQQSGSELKKPGASVKVSCKASGYTFTNYGMNWVKQAPGQGLKWMGWINTYTGEPTYTDDFKGRFAFSLDTSVSTAYLQISSLKADDTAVYFCARGGFGSSYWYFDVWGQGSLVTVSS VL: DIQLTQSPSSLSASVGDRVSITCKASQDVSIAVAWYQQKPGKAPKLLIYSHSYRYTGVPDRFSGSGSGTDFTLTISSLQPEDFAVYYCHQHYHTPLTFGAGTKVEIK | binds |  |  |
| MYT12357 (antibody, V domains shown, sacituzumab VL 52, 93 -> H) VH: QVQLQQSGSELKKPGASVKVSCKASGYTFTNYGMNWVKQAPGQGLKWMGWINTYTGEPTYTDDFKGRFAFSLDTSVSTAYLQISSLKADDTAVYFCARGGFGSSYWYFDVWGQGSLVTVSS VL: DIQLTQSPSSLSASVGDRVSITCKASQDVSIAVAWYQQKPGKAPKLLIYSAHYRYTGVPDRFSGSGSGTDFTLTISSLQPEDFAVYYCQQHYHTPLTFGAGTKVEIK | binds |  |  |
| MYT12353 (antibody, V domains shown, sacituzumab VL 52, 53 -> H) VH: QVQLQQSGSELKKPGASVKVSCKASGYTFTNYGMNWVKQAPGQGLKWMGWINTYTGEPTYTDDFKGRFAFSLDTSVSTAYLQISSLKADDTAVYFCARGGFGSSYWYFDVWGQGSLVTVSS VL: DIQLTQSPSSLSASVGDRVSITCKASQDVSIAVAWYQQKPGKAPKLLIYSAHHRYTGVPDRFSGSGSGTDFTLTISSLQPEDFAVYYCQQHYITPLTFGAGTKVEIK | binds |  |  |
| MYT12352 (antibody, V domains shown, sacituzumab VL 51, 93 -> H) VH: QVQLQQSGSELKKPGASVKVSCKASGYTFTNYGMNWVKQAPGQGLKWMGWINTYTGEPTYTDDFKGRFAFSLDTSVSTAYLQISSLKADDTAVYFCARGGFGSSYWYFDVWGQGSLVTVSS VL: DIQLTQSPSSLSASVGDRVSITCKASQDVSIAVAWYQQKPGKAPKLLIYSHSYRYTGVPDRFSGSGSGTDFTLTISSLQPEDFAVYYCQQHYHTPLTFGAGTKVEIK | binds |  |  |
| MYT12374 (antibody, V domains shown, sacituzumab VL 51, 53, 89 -> H) VH: QVQLQQSGSELKKPGASVKVSCKASGYTFTNYGMNWVKQAPGQGLKWMGWINTYTGEPTYTDDFKGRFAFSLDTSVSTAYLQISSLKADDTAVYFCARGGFGSSYWYFDVWGQGSLVTVSS VL: DIQLTQSPSSLSASVGDRVSITCKASQDVSIAVAWYQQKPGKAPKLLIYSHSHRYTGVPDRFSGSGSGTDFTLTISSLQPEDFAVYYCHQHYITPLTFGAGTKVEIK | binds |  |  |
| MYT12377 (antibody, V domains shown, sacituzumab VL 53, 89, 93 -> H) VH: QVQLQQSGSELKKPGASVKVSCKASGYTFTNYGMNWVKQAPGQGLKWMGWINTYTGEPTYTDDFKGRFAFSLDTSVSTAYLQISSLKADDTAVYFCARGGFGSSYWYFDVWGQGSLVTVSS VL: DIQLTQSPSSLSASVGDRVSITCKASQDVSIAVAWYQQKPGKAPKLLIYSASHRYTGVPDRFSGSGSGTDFTLTISSLQPEDFAVYYCHQHYHTPLTFGAGTKVEIK | binds |  |  |
| MYT12412 (hu7E6SVG variant, HCV substitutions at 33, 103) (antibody, V domains shown) VH: QVQLQESGPGLVKPSETLSLTCTVSGGSISSYHVHWIRQPPGKGLEWIGVIWTSGVTDYNSALMGRVTISVDTSKNQFSLKLSSVTAADTAVYYCARDGDYDHYTMDYWGQGTLVTVSS VL: DIVMTQSPDSLAVSLGERATINCRASKSVSTSGYSYMHWYQQKPGQPPKLLIYLASNLESGVPDRFSGSGSGTDFTLTISSLQAEDVAVYYCQHSRELPYTFGQGTKLEIK |  | binds |  |
| MYT12421 (hu7E6SVG variant, HCV substitutions at 51, 103) (antibody, V domains shown) VH: QVQLQESGPGLVKPSETLSLTCTVSGGSISSYGVHWIRQPPGKGLEWIGVHWTSGVTDYNSALMGRVTISVDTSKNQFSLKLSSVTAADTAVYYCARDGDYDHYTMDYWGQGTLVTVSS VL: DIVMTQSPDSLAVSLGERATINCRASKSVSTSGYSYMHWYQQKPGQPPKLLIYLASNLESGVPDRFSGSGSGTDFTLTISSLQAEDVAVYYCQHSRELPYTFGQGTKLEIK |  | binds |  |
| MYT12424 (hu7E6SVG variant, HCV substitutions at 56, 103) (antibody, V domains shown) VH: QVQLQESGPGLVKPSETLSLTCTVSGGSISSYGVHWIRQPPGKGLEWIGVIWTSGHTDYNSALMGRVTISVDTSKNQFSLKLSSVTAADTAVYYCARDGDYDHYTMDYWGQGTLVTVSS VL: DIVMTQSPDSLAVSLGERATINCRASKSVSTSGYSYMHWYQQKPGQPPKLLIYLASNLESGVPDRFSGSGSGTDFTLTISSLQAEDVAVYYCQHSRELPYTFGQGTKLEIK |  | binds |  |
| MYT12420 (hu7E6SVG variant, HCV substitutions at 51, 102) (antibody, V domains shown) VH: QVQLQESGPGLVKPSETLSLTCTVSGGSISSYGVHWIRQPPGKGLEWIGVHWTSGVTDYNSALMGRVTISVDTSKNQFSLKLSSVTAADTAVYYCARDGDYHRYTMDYWGQGTLVTVSS VL: DIVMTQSPDSLAVSLGERATINCRASKSVSTSGYSYMHWYQQKPGQPPKLLIYLASNLESGVPDRFSGSGSGTDFTLTISSLQAEDVAVYYCQHSRELPYTFGQGTKLEIK |  | binds |  |
| MYT12425 (hu7E6SVG variant, HCV substitutions at 56, 106) (antibody, V domains shown) VH: QVQLQESGPGLVKPSETLSLTCTVSGGSISSYGVHWIRQPPGKGLEWIGVIWTSGHTDYNSALMGRVTISVDTSKNQFSLKLSSVTAADTAVYYCARDGDYDRYTHDYWGQGTLVTVSS VL: DIVMTQSPDSLAVSLGERATINCRASKSVSTSGYSYMHWYQQKPGQPPKLLIYLASNLESGVPDRFSGSGSGTDFTLTISSLQAEDVAVYYCQHSRELPYTFGQGTKLEIK |  | binds |  |
| MYT12461 (hu7E6SVG variant, LCV substitutions at 59, 94, 97 (Ala at 94)) (antibody, V domains shown, Full IgG in Expi293 supernatant) VH: QVQLQESGPGLVKPSETLSLTCTVSGGSISSYGVHWIRQPPGKGLEWIGVIWTSGVTDYNSALMGRVTISVDTSKNQFSLKLSSVTAADTAVYYCARDGDYDRYTMDYWGQGTLVTVSS VL: DIVMTQSPDSLAVSLGERATINCRASKSVSTSGYSYMHWYQQKPGQPPKLLIYLASNLHSGVPDRFSGSGSGTDFTLTISSLQAEDVAVYYCQASRHLPYTFGQGTKLEIK |  |  | binding result [3]: no binding (tested: 50 nM) |
| MYT12460 (hu7E6SVG variant, LCV substitutions at 59, 93, 101) (antibody, V domains shown, Full IgG in Expi293 supernatant) VH: QVQLQESGPGLVKPSETLSLTCTVSGGSISSYGVHWIRQPPGKGLEWIGVIWTSGVTDYNSALMGRVTISVDTSKNQFSLKLSSVTAADTAVYYCARDGDYDRYTMDYWGQGTLVTVSS VL: DIVMTQSPDSLAVSLGERATINCRASKSVSTSGYSYMHWYQQKPGQPPKLLIYLASNLHSGVPDRFSGSGSGTDFTLTISSLQAEDVAVYYCHHSRELPYHFGQGTKLEIK |  |  | binding result [3]: no binding (tested: 50 nM) |
| MYT12416 (hu7E6SVG variant, HCV substitutions at 34, 102) (antibody, V domains shown) VH: QVQLQESGPGLVKPSETLSLTCTVSGGSISSYGHHWIRQPPGKGLEWIGVIWTSGVTDYNSALMGRVTISVDTSKNQFSLKLSSVTAADTAVYYCARDGDYHRYTMDYWGQGTLVTVSS VL: DIVMTQSPDSLAVSLGERATINCRASKSVSTSGYSYMHWYQQKPGQPPKLLIYLASNLESGVPDRFSGSGSGTDFTLTISSLQAEDVAVYYCQHSRELPYTFGQGTKLEIK |  | binds |  |
| MYT12464 (hu7E6SVG variant, LCV substitutions at 60, 93, 94 (Ala at 94)) (antibody, V domains shown, Full IgG in Expi293 supernatant) VH: QVQLQESGPGLVKPSETLSLTCTVSGGSISSYGVHWIRQPPGKGLEWIGVIWTSGVTDYNSALMGRVTISVDTSKNQFSLKLSSVTAADTAVYYCARDGDYDRYTMDYWGQGTLVTVSS VL: DIVMTQSPDSLAVSLGERATINCRASKSVSTSGYSYMHWYQQKPGQPPKLLIYLASNLEHGVPDRFSGSGSGTDFTLTISSLQAEDVAVYYCHASRELPYTFGQGTKLEIK |  |  | binding result [3]: no binding (tested: 50 nM) |
| MYT12462 (hu7E6SVG variant, LCV substitutions at 59, 94, 101 (Ala at 94)) (antibody, V domains shown, Full IgG in Expi293 supernatant) VH: QVQLQESGPGLVKPSETLSLTCTVSGGSISSYGVHWIRQPPGKGLEWIGVIWTSGVTDYNSALMGRVTISVDTSKNQFSLKLSSVTAADTAVYYCARDGDYDRYTMDYWGQGTLVTVSS VL: DIVMTQSPDSLAVSLGERATINCRASKSVSTSGYSYMHWYQQKPGQPPKLLIYLASNLHSGVPDRFSGSGSGTDFTLTISSLQAEDVAVYYCQASRELPYHFGQGTKLEIK |  |  | binding result [3]: no binding (tested: 50 nM) |
| MYT12417 (hu7E6SVG variant, HCV substitutions at 34, 103) (antibody, V domains shown) VH: QVQLQESGPGLVKPSETLSLTCTVSGGSISSYGHHWIRQPPGKGLEWIGVIWTSGVTDYNSALMGRVTISVDTSKNQFSLKLSSVTAADTAVYYCARDGDYDHYTMDYWGQGTLVTVSS VL: DIVMTQSPDSLAVSLGERATINCRASKSVSTSGYSYMHWYQQKPGQPPKLLIYLASNLESGVPDRFSGSGSGTDFTLTISSLQAEDVAVYYCQHSRELPYTFGQGTKLEIK |  | binds |  |
| MYT12465 (hu7E6SVG variant, LCV substitutions at 60, 93, 97) (antibody, V domains shown, Full IgG in Expi293 supernatant) VH: QVQLQESGPGLVKPSETLSLTCTVSGGSISSYGVHWIRQPPGKGLEWIGVIWTSGVTDYNSALMGRVTISVDTSKNQFSLKLSSVTAADTAVYYCARDGDYDRYTMDYWGQGTLVTVSS VL: DIVMTQSPDSLAVSLGERATINCRASKSVSTSGYSYMHWYQQKPGQPPKLLIYLASNLEHGVPDRFSGSGSGTDFTLTISSLQAEDVAVYYCHHSRHLPYTFGQGTKLEIK |  |  | binding result [3]: no binding (tested: 50 nM) |
